Where two headings read alike, the source gives them in different places.

The assay is described as follows: Ratiometric fluorescence glucose titration of fluorescent conjugates. On the set-up: key to Shape (fluorescence response to glucose) / Change (fluorescence response to glucose): m, monochromatic; d, dichromatic (i.e. spectral shape change); 0, no change. The conditions noted are these: tsGBP 13C affinity mutants, Acrylodan or Badan conjugates. It is filed as binding. The gist of the method: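 Single-cysteine glucose-binding protein mutants labelled site-specifically with thiol-reactive environmentally sensitive fluorophores; emission spectra recorded during glucose titration to detect ligand-mediated intensity and spectral-shape changes for ratiometric read-out. Temperature- and ligand-dependent fluorescence landscapes acquired in 1K steps; binding fitted to single-site fractional saturation.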

Where [1] appears, read: read-out: Glucose affinity ^appKd.
The mark [2] stands for this setting: read-out: Glucose affinity ^trueKd.

B1: H66Q A: tsGBP2.13C.H66Q (SEQ ID NO: 46) Acrylodan conjugate (conjugate)
chain: MKLEIFSWWAGDCGPALEALIRLYKQKYPGVEVINATVTGGAGVNAKAVLKTRMLGGDPPDTFQVQAGQELIGTWVVADRMEDLTSLFRQEGWLQAFPKGLIDLLSYKGGIWSVPVNIHRSNVMWYIPAKLKEWGVTPPKTWAEFLATAQTLKRKGLEAPLALGENWTQQHLWESVALATLGADGWNNLWSGKLKFTDPKAVAVWETFGKVLDAANKDAAGLSWQQAVDRVVQGKAAFNIMGDWAAGYMSTTLKLKPGTDFAWTPSPGTSGIFMMLSDSFGLPKGAKNRQNAINWLKLVGSKEGQDTFNPLKGSIAARLDSDPAKYNAYGQSAMKDWKSNRIVGSLVHGAVAPESFMSQFGTVMEIFLQSRNPQAAANAAQAIANQVGLGRGGSHHHHHH
modifications: Acrylodan conjugate; tsGBP2.13C.H66Q (13C, 66Q double substitution mutant with signal peptide replaced with M and a GGSHHHHHH at C-terminus)
For the molecule B1, the Kd under setting [1] is around 20 mM and the Kd under setting [2] is around 7 mM.

B2: D278S A: tsGBP2.13C.D278S (SEQ ID NO: 51) Acrylodan conjugate (conjugate)
chain: MKLEIFSWWAGDCGPALEALIRLYKQKYPGVEVINATVTGGAGVNAKAVLKTRMLGGDPPDTFQVHAGQELIGTWVVADRMEDLTSLFRQEGWLQAFPKGLIDLLSYKGGIWSVPVNIHRSNVMWYIPAKLKEWGVTPPKTWAEFLATAQTLKRKGLEAPLALGENWTQQHLWESVALATLGADGWNNLWSGKLKFTDPKAVAVWETFGKVLDAANKDAAGLSWQQAVDRVVQGKAAFNIMGDWAAGYMSTTLKLKPGTDFAWTPSPGTSGIFMMLSSSFGLPKGAKNRQNAINWLKLVGSKEGQDTFNPLKGSIAARLDSDPAKYNAYGQSAMKDWKSNRIVGSLVHGAVAPESFMSQFGTVMEIFLQSRNPQAAANAAQAIANQVGLGRGGSHHHHHH
modifications: Acrylodan conjugate; tsGBP2.13C.D278S (13C, 278S double substitution mutant with signal peptide replaced with M and a GGSHHHHHH at C-terminus)
Consider B2, for which the “Change (fluorescence response to glucose)” value (from here on “Change”) is given as “m/d”.

B3: H66Q B: tsGBP2.13C.H66Q (SEQ ID NO: 46) Badan conjugate (conjugate)
chain: MKLEIFSWWAGDCGPALEALIRLYKQKYPGVEVINATVTGGAGVNAKAVLKTRMLGGDPPDTFQVQAGQELIGTWVVADRMEDLTSLFRQEGWLQAFPKGLIDLLSYKGGIWSVPVNIHRSNVMWYIPAKLKEWGVTPPKTWAEFLATAQTLKRKGLEAPLALGENWTQQHLWESVALATLGADGWNNLWSGKLKFTDPKAVAVWETFGKVLDAANKDAAGLSWQQAVDRVVQGKAAFNIMGDWAAGYMSTTLKLKPGTDFAWTPSPGTSGIFMMLSDSFGLPKGAKNRQNAINWLKLVGSKEGQDTFNPLKGSIAARLDSDPAKYNAYGQSAMKDWKSNRIVGSLVHGAVAPESFMSQFGTVMEIFLQSRNPQAAANAAQAIANQVGLGRGGSHHHHHH
modifications: Badan conjugate; tsGBP2.13C.H66Q (13C, 66Q double substitution mutant with signal peptide replaced with M and a GGSHHHHHH at C-terminus)
With B3, the “Change” value is “m”. Further, under setting [1], the Kd was around 0.1 mM. Also, the Kd under setting [2] was around 0.09 mM.

B4: W244Y A: tsGBP2.13C.W244Y (SEQ ID NO: 49) Acrylodan conjugate (conjugate)
chain: MKLEIFSWWAGDCGPALEALIRLYKQKYPGVEVINATVTGGAGVNAKAVLKTRMLGGDPPDTFQVHAGQELIGTWVVADRMEDLTSLFRQEGWLQAFPKGLIDLLSYKGGIWSVPVNIHRSNVMWYIPAKLKEWGVTPPKTWAEFLATAQTLKRKGLEAPLALGENWTQQHLWESVALATLGADGWNNLWSGKLKFTDPKAVAVWETFGKVLDAANKDAAGLSWQQAVDRVVQGKAAFNIMGDYAAGYMSTTLKLKPGTDFAWTPSPGTSGIFMMLSDSFGLPKGAKNRQNAINWLKLVGSKEGQDTFNPLKGSIAARLDSDPAKYNAYGQSAMKDWKSNRIVGSLVHGAVAPESFMSQFGTVMEIFLQSRNPQAAANAAQAIANQVGLGRGGSHHHHHH
modifications: Acrylodan conjugate; tsGBP2.13C.W244Y (13C, 244Y double substitution mutant with signal peptide replaced with M and a GGSHHHHHH at C-terminus)
B4: the Kd by setting is: under setting [1], 5.6 mM; under setting [2], 7.8 mM.

B5: W244M B: tsGBP2.13C.W244M (SEQ ID NO: 47) Badan conjugate (conjugate)
chain: MKLEIFSWWAGDCGPALEALIRLYKQKYPGVEVINATVTGGAGVNAKAVLKTRMLGGDPPDTFQVHAGQELIGTWVVADRMEDLTSLFRQEGWLQAFPKGLIDLLSYKGGIWSVPVNIHRSNVMWYIPAKLKEWGVTPPKTWAEFLATAQTLKRKGLEAPLALGENWTQQHLWESVALATLGADGWNNLWSGKLKFTDPKAVAVWETFGKVLDAANKDAAGLSWQQAVDRVVQGKAAFNIMGDMAAGYMSTTLKLKPGTDFAWTPSPGTSGIFMMLSDSFGLPKGAKNRQNAINWLKLVGSKEGQDTFNPLKGSIAARLDSDPAKYNAYGQSAMKDWKSNRIVGSLVHGAVAPESFMSQFGTVMEIFLQSRNPQAAANAAQAIANQVGLGRGGSHHHHHH
modifications: Badan conjugate; tsGBP2.13C.W244M (13C, 244M double substitution mutant with signal peptide replaced with M and a GGSHHHHHH at C-terminus)
For the molecule B5, the Kd reads like this: under setting [1], around 5 mM; under setting [2], around 7 mM.

B6: W244Y B: tsGBP2.13C.W244Y (SEQ ID NO: 49) Badan conjugate (conjugate)
chain: MKLEIFSWWAGDCGPALEALIRLYKQKYPGVEVINATVTGGAGVNAKAVLKTRMLGGDPPDTFQVHAGQELIGTWVVADRMEDLTSLFRQEGWLQAFPKGLIDLLSYKGGIWSVPVNIHRSNVMWYIPAKLKEWGVTPPKTWAEFLATAQTLKRKGLEAPLALGENWTQQHLWESVALATLGADGWNNLWSGKLKFTDPKAVAVWETFGKVLDAANKDAAGLSWQQAVDRVVQGKAAFNIMGDYAAGYMSTTLKLKPGTDFAWTPSPGTSGIFMMLSDSFGLPKGAKNRQNAINWLKLVGSKEGQDTFNPLKGSIAARLDSDPAKYNAYGQSAMKDWKSNRIVGSLVHGAVAPESFMSQFGTVMEIFLQSRNPQAAANAAQAIANQVGLGRGGSHHHHHH
modifications: Badan conjugate; tsGBP2.13C.W244Y (13C, 244Y double substitution mutant with signal peptide replaced with M and a GGSHHHHHH at C-terminus)
As for B6, the Kd runs as follows: under setting [1], 4.1 mM; under setting [2], 3.8 mM.

B7: W244M A: tsGBP2.13C.W244M (SEQ ID NO: 47) Acrylodan conjugate (conjugate)
chain: MKLEIFSWWAGDCGPALEALIRLYKQKYPGVEVINATVTGGAGVNAKAVLKTRMLGGDPPDTFQVHAGQELIGTWVVADRMEDLTSLFRQEGWLQAFPKGLIDLLSYKGGIWSVPVNIHRSNVMWYIPAKLKEWGVTPPKTWAEFLATAQTLKRKGLEAPLALGENWTQQHLWESVALATLGADGWNNLWSGKLKFTDPKAVAVWETFGKVLDAANKDAAGLSWQQAVDRVVQGKAAFNIMGDMAAGYMSTTLKLKPGTDFAWTPSPGTSGIFMMLSDSFGLPKGAKNRQNAINWLKLVGSKEGQDTFNPLKGSIAARLDSDPAKYNAYGQSAMKDWKSNRIVGSLVHGAVAPESFMSQFGTVMEIFLQSRNPQAAANAAQAIANQVGLGRGGSHHHHHH
modifications: Acrylodan conjugate; tsGBP2.13C.W244M (13C, 244M double substitution mutant with signal peptide replaced with M and a GGSHHHHHH at C-terminus)
As to B7, the Kd under setting [1] was around 40 mM and the Kd under setting [2] was around 20 mM.

B8: D278N A: tsGBP2.13C.D278N (SEQ ID NO: 50) Acrylodan conjugate (conjugate)
chain: MKLEIFSWWAGDCGPALEALIRLYKQKYPGVEVINATVTGGAGVNAKAVLKTRMLGGDPPDTFQVHAGQELIGTWVVADRMEDLTSLFRQEGWLQAFPKGLIDLLSYKGGIWSVPVNIHRSNVMWYIPAKLKEWGVTPPKTWAEFLATAQTLKRKGLEAPLALGENWTQQHLWESVALATLGADGWNNLWSGKLKFTDPKAVAVWETFGKVLDAANKDAAGLSWQQAVDRVVQGKAAFNIMGDWAAGYMSTTLKLKPGTDFAWTPSPGTSGIFMMLSNSFGLPKGAKNRQNAINWLKLVGSKEGQDTFNPLKGSIAARLDSDPAKYNAYGQSAMKDWKSNRIVGSLVHGAVAPESFMSQFGTVMEIFLQSRNPQAAANAAQAIANQVGLGRGGSHHHHHH
modifications: Acrylodan conjugate; tsGBP2.13C.D278N (13C, 278N double substitution mutant with signal peptide replaced with M and a GGSHHHHHH at C-terminus)
For B8, the Kd runs as follows: under setting [1], around 100 mM; under setting [2], around 100 mM.

B9: D278N B: tsGBP2.13C.D278N (SEQ ID NO: 50) Badan conjugate (conjugate)
chain: MKLEIFSWWAGDCGPALEALIRLYKQKYPGVEVINATVTGGAGVNAKAVLKTRMLGGDPPDTFQVHAGQELIGTWVVADRMEDLTSLFRQEGWLQAFPKGLIDLLSYKGGIWSVPVNIHRSNVMWYIPAKLKEWGVTPPKTWAEFLATAQTLKRKGLEAPLALGENWTQQHLWESVALATLGADGWNNLWSGKLKFTDPKAVAVWETFGKVLDAANKDAAGLSWQQAVDRVVQGKAAFNIMGDWAAGYMSTTLKLKPGTDFAWTPSPGTSGIFMMLSNSFGLPKGAKNRQNAINWLKLVGSKEGQDTFNPLKGSIAARLDSDPAKYNAYGQSAMKDWKSNRIVGSLVHGAVAPESFMSQFGTVMEIFLQSRNPQAAANAAQAIANQVGLGRGGSHHHHHH
modifications: Badan conjugate; tsGBP2.13C.D278N (13C, 278N double substitution mutant with signal peptide replaced with M and a GGSHHHHHH at C-terminus)
As for B9, the “Change” value was “m/d”. Further, the Kd under setting [1] came to 99 mM.

For the origin of these results see patent US11402384B2 (Duke University, priority 2015, dated 2022).
